Measurements taken from US20060167238, “Gene expression using metal ion dependent repressor/operator tandems” (ADVANCED MICROBIAL SOLUTIONS CORPORATION, published 2006).

T1: DtxR (Corynebacterium diphtheriae, UniProt P0DJL7 P0DJL7:1-226)
T1 sequence: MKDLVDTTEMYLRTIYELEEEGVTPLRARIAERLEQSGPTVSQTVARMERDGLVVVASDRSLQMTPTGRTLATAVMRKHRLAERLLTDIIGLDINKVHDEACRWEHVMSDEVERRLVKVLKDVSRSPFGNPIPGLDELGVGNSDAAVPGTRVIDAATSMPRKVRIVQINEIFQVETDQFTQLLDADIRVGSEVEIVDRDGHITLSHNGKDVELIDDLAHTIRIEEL

T2: SirR (UniProt Q5HRA0 Q5HRA0:1-214)
T2 sequence: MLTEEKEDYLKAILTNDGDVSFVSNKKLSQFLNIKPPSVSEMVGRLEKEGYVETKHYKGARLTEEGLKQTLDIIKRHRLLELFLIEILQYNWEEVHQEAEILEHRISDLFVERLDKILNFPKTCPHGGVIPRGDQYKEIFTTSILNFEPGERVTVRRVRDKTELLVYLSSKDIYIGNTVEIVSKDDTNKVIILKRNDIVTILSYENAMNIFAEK

B1: tacP (dsDNA)
DNA 1: CCCTGTTGACAATTAATCATCGGCTCGTATAATGTGTGGAATTGTGAGCGGATAACAATTTCA
DNA 2: TGAAATTGTTATCCGCTCACAATTCCACACATTATACGAGCCGATGATTAATTGTCAACAGGG
B2: sitABC box (dsDNA)
DNA 1: AACTTGACATGTTAAAACTTTAGAGTATATTATAAAATAAATTAGGTTAACCTAAACTTTTTATTAGGAGG
DNA 2: CCTCCTAATAAAAAGTTTAGGTTAACCTAATTTATTTTATAATATACTCTAAAGTTTTAACATGTCAAGTT
B3: tacPtoxO hybrid promoter/operator (dsDNA)
DNA 1: CCCTGTTGACAATTAATCACCGGTACCTATAATTAGGATAGCTTTACCTAATTATTTTACACCC
DNA 2: GGGTGTAAAATAATTAGGTAAAGCTATCCTAATTATAGGTACCGGTGATTAATTGTCAACAGGG
B4: efaABC promoter/operator (efa box) (dsDNA)
DNA 1: TTTTCTTAAACTATCCCTTATACTGATTTTAAGGCAAACCTAAAAA
DNA 2: TTTTTAGGTTTGCCTTAAAATCAGTATAAGGGATAGTTTAAGAAAA

Key:
Assay in all cases: EMSA
DtxR = molecular target: T1, DtxR; conditions: chain copies: 4
SirR = molecular target: T2, SirR
EfaR = EfaR (Enterococcus faecalis, UniProt Q93CH5 Q93CH5:1-222); conditions: tags: untagged (pQN vector); label: 32P

| Binder | binding result (DtxR) | also measured |
| --- | --- | --- |
| B1 | no binding | – |
| B2 | – | binding result (SirR): binds |
| B3 | binds | – |
| B4 | – | binding result (EfaR): binds |
